Measured values as given in US20230416346.

Legend:
[1] = biological target: recombinant human full-length SPARC (R&D Systems) (UniProt P09486)
[2] = biological target: human SPARC secreted by human mammary fibroblasts (HMFs) (UniProt P09486)
Sequence of human SPARC secreted by human mammary fibroblasts (HMFs) (P09486 18-303): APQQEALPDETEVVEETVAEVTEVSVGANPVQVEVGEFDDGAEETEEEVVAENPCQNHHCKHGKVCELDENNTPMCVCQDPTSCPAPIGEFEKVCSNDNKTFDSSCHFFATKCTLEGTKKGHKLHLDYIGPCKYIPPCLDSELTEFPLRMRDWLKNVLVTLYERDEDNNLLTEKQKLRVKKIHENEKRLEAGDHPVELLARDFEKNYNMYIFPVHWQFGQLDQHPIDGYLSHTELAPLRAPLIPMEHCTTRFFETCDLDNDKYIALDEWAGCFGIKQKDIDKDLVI

Sequence of recombinant human full-length SPARC (R&D Systems) (P09486 18-303): as above
Sequence of auto-activated 51-kDa pseudo-cath-D (recombinant human cathepsin D) (chain, as listed by the source): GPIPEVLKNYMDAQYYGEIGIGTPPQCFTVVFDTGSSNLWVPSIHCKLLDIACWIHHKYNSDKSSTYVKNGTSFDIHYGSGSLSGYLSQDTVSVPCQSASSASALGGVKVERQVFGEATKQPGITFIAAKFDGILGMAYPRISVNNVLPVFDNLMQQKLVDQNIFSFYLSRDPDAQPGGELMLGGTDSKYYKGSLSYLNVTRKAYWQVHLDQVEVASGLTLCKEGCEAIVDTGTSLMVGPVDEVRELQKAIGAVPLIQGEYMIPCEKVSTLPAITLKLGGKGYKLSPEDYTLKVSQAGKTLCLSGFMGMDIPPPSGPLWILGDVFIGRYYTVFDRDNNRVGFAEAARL
Sequence of human cath-D secreted by TNBC cells (MDA-MB-231) (chain, as listed by the source): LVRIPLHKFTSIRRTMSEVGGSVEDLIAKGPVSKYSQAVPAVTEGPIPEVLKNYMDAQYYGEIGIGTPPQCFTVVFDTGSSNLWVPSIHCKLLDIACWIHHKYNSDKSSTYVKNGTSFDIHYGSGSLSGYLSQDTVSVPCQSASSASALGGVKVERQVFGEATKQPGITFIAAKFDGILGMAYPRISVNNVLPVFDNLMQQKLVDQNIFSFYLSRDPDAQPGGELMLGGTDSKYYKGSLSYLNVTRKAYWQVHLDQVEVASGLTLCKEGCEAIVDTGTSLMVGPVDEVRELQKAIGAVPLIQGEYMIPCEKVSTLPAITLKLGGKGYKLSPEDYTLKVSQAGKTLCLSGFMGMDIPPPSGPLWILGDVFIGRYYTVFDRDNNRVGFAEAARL

auto-activated 51-kDa pseudo-cath-D (recombinant human cathepsin D)
ATOMS ratio (Pseudo-cathD + SPARC - pepst./Pseudo-cath-D + SPARC + pepst), peptide DQHPIDGYLSHTELAPLR [239-256], trypsin [1]: 8.4 | ATOMS ratio (Pseudo-cathD + SPARC - pepst./Pseudo-cath-D + SPARC + pepst), peptide EAGDHPVELLAR [207-218], trypsin [1]: 11.3 | ATOMS ratio (Pseudo-cathD + SPARC - pepst./Pseudo-cath-D + SPARC + pepst), peptide FGQLDQHPIDGYLSHTELAPLR [235-256], trypsin [1]: 10.6 | ATOMS ratio (Pseudo-cathD + SPARC - pepst./Pseudo-cath-D + SPARC + pepst), peptide GQLDQHPIDGYLSHTELAPLR [236-256], trypsin [1]: 2 | ATOMS ratio (Pseudo-cathD + SPARC - pepst./Pseudo-cath-D + SPARC + pepst), peptide PLIPMEHCTTR [258-268], trypsin [1]: 22.5 | ATOMS ratio (Pseudo-cathD + SPARC - pepst./Pseudo-cath-D + SPARC + pepst), peptide QLDQHPIDGYLSHTELAPLR [237-256], trypsin [1]: 3.5 | ATOMS ratio (Pseudo-cathD + SPARC - pepst./Pseudo-cath-D + SPARC + pepst), peptide SHTELAPLR [248-256], trypsin [1]: 2.7 | ATOMS ratio (Pseudo-cathD + SPARC - pepst./Pseudo-cath-D + SPARC + pepst), peptide VTLYERDEDNNLLTEK [176-191], trypsin [1]: 12.1 | ATOMS ratio (Pseudo-cathD + SPARC - pepst./Pseudo-cath-D + SPARC + pepst), peptide YERDEDNNLLTEK [179-191], trypsin [1]: 13.7 | ATOMS ratio (Pseudo-cathD + SPARC - pepst./Pseudo-cath-D + SPARC + pepst), peptide YERDEDNNLLTEKQK [179-193], trypsin [1]: 21.1 | ATOMS ratio (Pseudo-cathD + SPARC - pepst./Pseudo-cath-D + SPARC + pepst), peptide YLSHTELAPLR [246-256], trypsin [1]: 18.8 | SPARC cleavage at pH 5.9, ATOMS and silver staining [1]: SPARC was hydrolysed by the 51-kDa cath-D form exclusively in its extracellular Ca2+ binding domain, releasing five main SPARC fragments (34-, 27, 16, 9-, and 6-kDa) at pH 5.9 | SPARC cleavage, pH dependence (6.8 to 5.5), SDS-PAGE and immunoblot [1]: experiments in which pH was gradually reduced from 6.8 to 5.5 showed progressive limited proteolysis of SPARC at lower pH | SPARC cleavage, time course at pH 5.9, SDS-PAGE and immunoblot [1]: At pH 5.9, SPARC was hydrolysed by cath-D in a time-dependent manner

fully-mature cath-D (34+14-kDa) (recombinant human cathepsin D)
ATOMS ratio (Mature cath-D + SPARC - pepst./Mature cath-D + SPARC + pepst.), peptide DQHPIDGYLSHTELAPLR [239-256], trypsin [1]: 8.1 | ATOMS ratio (Mature cath-D + SPARC - pepst./Mature cath-D + SPARC + pepst.), peptide DWLKNVLVTLYER [169-181], trypsin [1]: 0.5 | ATOMS ratio (Mature cath-D + SPARC - pepst./Mature cath-D + SPARC + pepst.), peptide EAGDHPVELLAR [207-218], trypsin [1]: 19.3 | ATOMS ratio (Mature cath-D + SPARC - pepst./Mature cath-D + SPARC + pepst.), peptide FGQLDQHPIDGYLSHTELAPLR [235-256], trypsin [1]: 5.9 | ATOMS ratio (Mature cath-D + SPARC - pepst./Mature cath-D + SPARC + pepst.), peptide GQLDQHPIDGYLSHTELAPLR [236-256], trypsin [1]: 2.3 | ATOMS ratio (Mature cath-D + SPARC - pepst./Mature cath-D + SPARC + pepst.), peptide LDSELTEFPLR [156-166], trypsin [1]: 0.4 | ATOMS ratio (Mature cath-D + SPARC - pepst./Mature cath-D + SPARC + pepst.), peptide LSHTELAPLR [247-256], trypsin [1]: 2.4 | ATOMS ratio (Mature cath-D + SPARC - pepst./Mature cath-D + SPARC + pepst.), peptide PLIPMEHCTTR [258-268], trypsin [1]: 4.3 | ATOMS ratio (Mature cath-D + SPARC - pepst./Mature cath-D + SPARC + pepst.), peptide PVHWQFGQLDQHPIDGYLSHTELAPLR [230-256], trypsin [1]: 5.6 | ATOMS ratio (Mature cath-D + SPARC - pepst./Mature cath-D + SPARC + pepst.), peptide QLDQHPIDGYLSHTELAPLR [237-256], trypsin [1]: 2.2 | ATOMS ratio (Mature cath-D + SPARC - pepst./Mature cath-D + SPARC + pepst.), peptide SHTELAPLR [248-256], trypsin [1]: 1.6 | ATOMS ratio (Mature cath-D + SPARC - pepst./Mature cath-D + SPARC + pepst.), peptide VTLYERDEDNNLLTEK [176-191], trypsin [1]: 14.3 | ATOMS ratio (Mature cath-D + SPARC - pepst./Mature cath-D + SPARC + pepst.), peptide WQFGQLDQHPIDGYLSHTELAPLR [233-256], trypsin [1]: 3.1 | ATOMS ratio (Mature cath-D + SPARC - pepst./Mature cath-D + SPARC + pepst.), peptide YERDEDNNLLTEK [179-191], trypsin [1]: 11.8 | ATOMS ratio (Mature cath-D + SPARC - pepst./Mature cath-D + SPARC + pepst.), peptide YERDEDNNLLTEKQK [179-193], trypsin [1]: 16.8 | ATOMS ratio (Mature cath-D + SPARC - pepst./Mature cath-D + SPARC + pepst.), peptide YLSHTELAPLR [246-256], trypsin [1]: 5.7 | SPARC cleavage at pH 5.9, ATOMS and silver staining [1]: We detected SPARC cleavage fragments of similar size also after incubation with the fully mature 34+14-kDa cath-D form at pH 5.9

human cath-D secreted by TNBC cells (MDA-MB-231)
SPARC cleavage in MDA-MB-231/HMF conditioned medium at pH 5.5, immunoblot [2]: SPARC was hydrolysed in a time-dependent manner in the conditioned medium at pH 5.5 | SPARC cleavage in MDA-MB-231/HMF conditioned medium at pH 6.8 to 5.5, immunoblot [2]: in the MDA-MB-231/HMF conditioned medium, SPARC was significantly degraded up to pH 6.2 | TAILS ratio (CM - pepst./CM + pepst.), peptide DQHPIDGYLSHTELAPLR [239-256], trypsin [2]: 7.6 | TAILS ratio (CM - pepst./CM + pepst.), peptide EAGDHPVELLAR [207-218], trypsin [2]: 3.4 | TAILS ratio (CM - pepst./CM + pepst.), peptide GQLDQHPIDGYLSHTELAPLR [236-256], trypsin [2]: 12.4 | TAILS ratio (CM - pepst./CM + pepst.), peptide PLIPMEHCTTR [258-268], trypsin [2]: 5.9 | TAILS ratio (CM - pepst./CM + pepst.), peptide QLDQHPIDGYLSHTELAPLR [237-256], trypsin [2]: 15.1 | TAILS ratio (CM - pepst./CM + pepst.), peptide YLSHTELAPLR [246-256], trypsin [2]: 4.4
